Measurements: patent publication US20260201030A1, “ANTIBODY, ANTIBODY-DRUG CONJUGATE THEREOF AND USE THEREOF” (EVOPOINT BIOSCIENCES CO., LTD., priority 2021, published 2026)

Experiments:
[1] = biological target: T1, rat Claudin18.2 (Rattus norvegicus, UniProt Q5I0E5); test: FACS species affinity on HEK293T-Claudin18.2 (rat) cells; assay type: binding; conditions: cell-based FACS
T1 construct: expressed in transfected cells
Procedure: (§1) The affinity of the anti-human Claudin18.2 humanized monoclonal antibodies for Claudin18.2 of different species was determined by flow cytometry (FACS). The experimental procedures were as follows: HEK293T-Claudin18.2 (cynomolgus monkey) cells, HEK293T-Claudin18.2 (mouse) cells and HEK293T-Claudin18.2 (rat) cells were digested, collected by centrifugation, washed three times with pre-cooled PBS, resuspended in 1% BSA (in PBS), and added to a 96-well pointed bottom plate at 3×10^5 cells/well. Each antibody subjected to gradient dilution was added, and the mixture was incubated at 4° C. for 1 h. The cells were washed three times with pre-cooled PBS, and then 1 μL of a fluorescent secondary antibody (APC: Biolegend-410712) was added to each well. The mixture was incubated at 4° C. for 0.5 h, and the cells were washed three times with pre-cooled PBS, then resuspended, and assayed on a flow cytometer.

[2] = biological target: T2, human Claudin18.2 (Homo sapiens, UniProt P56856); test: Cell-based FACS affinity on NUGC4 cells; assay type: binding
T2 construct: expressed in transfected cells
Procedure: (§2) The affinity of the anti-human Claudin18.2 humanized antibodies was detected by flow cytometry. The experimental procedures were as follows: The adherent cultured HEK293T-Claudin18.2 (human), NUGC4-Claudin18.2 (human) and NUGC4 cells were digested, collected by centrifugation, and washed three times with pre-cooled PBS. The cells were resuspended in 1% BSA (in PBS) and added to a 96-well pointed bottom plate at 3×10^5 cells/well, with a volume of 50 μL per well. Each test antibody was diluted with 1% BSA (in PBS) (starting at 100 μg/mL, diluted in a 3-fold gradient, for 10 concentration points). The test antibody subjected to gradient dilution was added to the cells at 50 μL/well, and the mixture was well mixed and incubated at 4° C. for 1 h. The cells were collected by centrifugation, washed three times with pre-cooled PBS, and resuspended in 50 μL of 1% BSA (in PBS). 1 μL of a fluorescent secondary antibody (Biolegend-410712) was added to each well, and the mixture was well mixed and incubated at 4° C. for 0.5 h. The cells were collected by centrifugation, washed three times with pre-cooled PBS, resuspended in 200 μL of PBS, and assayed on a machine.

[3] = tested on: HEK293T-Claudin18.2 (human) cells; test: ADCC activity, fluorescein reporter system (Jurkat-NFAT-CD16a); assay type: cell-based; conditions: HEK293T-Claudin18.2 (human) target cells, 5 h
Procedure: ADCC activity of the anti-human Claudin18.2 humanized monoclonal antibodies was detected by a fluorescein reporter system. The experiment was carried out using a Rhinogen® Bio-Glory One-Step Firefly Luciferase Assay kit (Suzhou Rhino Bio, RA-GL04), following the manufacturer's instructions. The experimental procedures were as follows: HEK293T-Claudin18.2 (human) cells were digested, collected by centrifugation, resuspended in DMEM+1% FBS, and then plated at 50000 cells/well. Jurkat-NFAT-CD16a cells were collected by centrifugation and resuspended in 1640+1% FBS, and then plated at 100000 cells/well. Each test antibody subjected to gradient dilution was added, and the mixture was incubated at 37° C. for 5 h. 50 μL of a Bio-Glory One-Step luciferase substrate was added to each well, and readings were taken on a microplate reader (MD, SpectraMax i3x).

[4] = tested on: cynomolgus monkey Claudin18.2; test: FACS species affinity on HEK293T-Claudin18.2 (cynomolgus monkey) cells; assay type: binding; conditions: cell-based FACS
Procedure: as §1

[5] = biological target: T2, human Claudin18.2; test: Cell-based FACS affinity on NUGC4-Claudin18.2 (human) cells; assay type: binding
Procedure: as §2

[6] = biological target: T2, human Claudin18.2; test: Cell-based ELISA affinity on NUGC4-Claudin18.2 (human) cells; assay type: binding
[7] = biological target: T3, mouse Claudin18.2 (Mus musculus, UniProt P56857); test: FACS species affinity on HEK293T-Claudin18.2 (mouse) cells; assay type: binding; conditions: cell-based FACS
T3 construct: expressed in transfected cells
T3 sequence (P56857 1-264 isoform P56857-3): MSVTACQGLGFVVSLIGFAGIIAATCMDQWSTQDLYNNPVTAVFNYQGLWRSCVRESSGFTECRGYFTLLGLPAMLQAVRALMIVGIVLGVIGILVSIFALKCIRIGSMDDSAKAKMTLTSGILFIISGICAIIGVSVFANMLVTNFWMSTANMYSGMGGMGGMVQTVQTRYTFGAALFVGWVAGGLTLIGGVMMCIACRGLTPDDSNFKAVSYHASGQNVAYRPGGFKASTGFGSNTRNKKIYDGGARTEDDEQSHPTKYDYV
Procedure: as §1

T1 sequence (Q5I0E5 1-261 isoform Q5I0E5-2): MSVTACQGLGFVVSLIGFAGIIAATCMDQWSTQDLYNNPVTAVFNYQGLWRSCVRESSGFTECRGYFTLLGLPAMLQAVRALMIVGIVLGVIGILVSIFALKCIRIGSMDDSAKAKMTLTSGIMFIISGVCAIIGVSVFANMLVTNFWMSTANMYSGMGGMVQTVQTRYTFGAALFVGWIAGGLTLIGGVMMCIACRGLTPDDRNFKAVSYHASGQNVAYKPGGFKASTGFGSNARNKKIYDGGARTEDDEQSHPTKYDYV

HEK293T-Claudin18.2 (rat) EC50 [1]	binding to NUGC4 (in words) [2]	HEK293T-Claudin18.2 (cynomolgus monkey) EC50 [4]	NUCG4- Claudin18.2 EC50 [5]	NUCG4- Claudin18.2 Maximum signal value [5]	NUGC4-Claudin18.2 EC50 [6]	NUGC4-Claudin18.2 Maximum signal value ([6]; OD450)	HEK293T-Claudin18.2 (mouse) EC50 [7]	Molecule	ADCC activity EC50 [3]
1.672 µg/mL	significant binding	0.2398 µg/mL	3.192 µg/mL	871132	0.1076 µg/mL	1.284	0.9407 µg/mL	25C7A5-HZ1: humanized anti-Claudin18.2 antibody, VH SEQ ID NO: 1, VL SEQ ID NO: 2, human IgG1/Kappa constant regions (antibody, V domains shown, human IgG1/kappa constant regions) VH: QVQLVQSGAEVKKPGSSVKVSCKASGYTFTNYWLHWVRQAPGQGLEWMGMMHPISGSSNYAQKFQGRATLTVDKSTSTAYMELSSLRSEDTAVYYCARGLLSAMDYWGQGTLVTVSS VL: EIVLTQSPATLSLSPGERATLSCKASENVKTYVSWYQQKPGQSPRLLIYEASNRYTGVPARFSGSGSATDFTLTISSLEPEDFAVYFCGQTYSFPPTFGQGTKVEIK	0.04649 µg/mL
		0.2133 µg/mL						25C7A5-HZ2: humanized anti-Claudin18.2 antibody, VH SEQ ID NO: 3, VL SEQ ID NO: 2, human IgG1/Kappa constant regions (antibody, V domains shown, human IgG1/kappa constant regions) VH: QVQLVESGAEVKKPGSSVKVSCKASGYTFTNYWLHWVRQAPGQGLEWMGMMHPISGSSNYAQKFQGRATLTVDKSTSTAYMELSSLRSEDTAVYYCARGLLSAMDYWGQGTLVTVSS VL: EIVLTQSPATLSLSPGERATLSCKASENVKTYVSWYQQKPGQSPRLLIYEASNRYTGVPARFSGSGSATDFTLTISSLEPEDFAVYFCGQTYSFPPTFGQGTKVEIK	0.04875 µg/mL
